According to the nanobody polyreactivity screen of Harvey et al. (2022):

Test: yeast display, Sf9 membrane polyspecificity reagent, FACS + sequencing; frameworks hold sequencing errors
Outline: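 Nanobodies came from a synthetic yeast display library in Saccharomyces cerevisiae BJ5465, induced with galactose for 36–48 hours and stained for 1 hour at 4 °C with 10% biotinylated, detergent-solubilized Sf9 membrane reagent. Cells were enriched on streptavidin microbeads and then FACS-sorted, with low and high (top ~1%) gates set on anti-HA fluorescence for expression and streptavidin fluorescence for reagent binding. Each polyreactivity label reflects the gate a clone came from. Genes were amplified by colony PCR, sequenced by MiSeq 2 × 250 and filtered by CDR length.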

| Sequence | polyreactivity (PSR sort gate) |
| --- | --- |
| QVQLLESGGGLVQAGGSLRLSCAAYGSTFGYNDMGWYRQAPGKVRELVAAITRRSGSTYYADSVKGRFTISRDNAKNSVNLQMNSLKPEDTAVYYCAASYHYGDRWPIRMDYWGQGTQVTVSS | low polyreactivity |
| QVQLLESGGGLVQAGGSLRLTCAASGSTFKRYAMGWYRQAPGKERELVAAITTSGGSTYYADSVKGRFTISRDNAKNTVYLQMNSLEPEDTAVYYCAAVWPGRRTTNYYFPGHGYQYGYWGQGTQVTVSS | high polyreactivity |
| QVQLLESGGGLVQAGGSLRLTCAASGSTFSPNAMGWYRQAPGKERELVAAITYRGANTYYADSVKGRFTISRDNAKITVYLQMNSLKPEDTAVYYCDAEYAYHHVGFGYWGQGTQVTVSS | low polyreactivity |
| QVQLLESGGGLVQAGGSVRLSCAASGFTYRYYAMGWYRQEPGKERELVASISFSGTRTYYADSVKGRFTISRDNAKNTVFLQMNSLKPHDTAVDYCNACLYSRYEFDYWGQGSQVTVSS | high polyreactivity |
| QVQLLESGGGLVQAGGTLRLSCAASGITFTVYTMGWYRQAPGKERELVAAIDSDGITNYADSVKGRFTISRDNAKNTVYLQMNSLKPEDTAVYYCAKQSGRADGVSGFDYWGQGTQVTVSS | low polyreactivity |
| QVQLLESGGGLVQAGGTLRLSCAASGRISWYNAMGWYRQAPGKERELVAAIRGGGSTHYADSVKGRFTISRDNAKNTVYLQMNSLKPEDTAVYYCAAYLYYPFYWWRDYWGQGTQVTVSS | high polyreactivity |
| QVQLLESGGGLVQAGRSLRLSCAASGSIFWYAMGWYRQAPGKERELVATITSGASTTYADSVKGRFTISRDNAKNTVYLQMNSLNPEDTAVYYCAKRNYLSYRYDYWGQGTQVNVSS | low polyreactivity |
| QVQLLESGGGLVQARGSLRLSCAASGRILEGYAMGWYRPAPGKERELVAALSFSTTPTYYADSVKGRFTISRDNAKNTVYLQMYSLKPEDTAVDYCAADSQQSDYDYWGQGSQVTVSS | high polyreactivity |
| QVQLLESGGGLVQARGSLRLSCAASGRNFVPYVMGWYRQAPGKERELVASISDSDTSTYYADSVKGRFTISRDNAKNTVYLQMNSLKPEDTAVYYCNVDYWGQGTQVTVSS | low polyreactivity |
| QVQLLESGVGLVQAGGTLRLSCAASGRTFYRNAMGWYRQATGKEREMVAAISQSGGSTYYADSVKGRFTISRDNAKNTVYLQMNSLKPEDTAVYYCAAGNSRRVGMDYWGQGTQVTVSS | high polyreactivity |
| QVQLLESWGGLVHAGGSLRLSCAASGRIIYRYAMGWSRQAPGNERELVAGISNAGGSTYYADSVKGRFTISRDNAKNTVYLQMNSLKPEDTAVYYCATGPSYRYDKGGGRSRYYYWGQGTQVTVSS | high polyreactivity |
| QVQLLESWGGLVQAGGSLRLSCAASGRTSTRNAMGWSRQAPGKERELVAAISWSGGRTHYADSVKWRFTISRDNAMNYVYYQMNSLKQEATAVYYCAAAYTGGQYYYSWGQGTQVSVSS | high polyreactivity |
| QVQLLETGAGLVHAGGSLRLSCAAYGFIFRDYAMGCYRQAPGKERELVAAIYYSGGSTYYADSVKGRFTISRDNAKNTVYLQLNSLKPEDTAVYYCNAVNPYYAPTDRRVGYDYWGQGTQVTVSS | high polyreactivity |
| QVQLLETGRGLVQAGGSLRLSCASSGSIFFLYAMGWYRQAPGKERELVAAINWRTGRTYYADSVKWRFTISRDNAKNTVYFQMNSLKPEDTEVYYCAARSVPSPERGFYYWGQGTQVTVSS | high polyreactivity |
| QVQLQDSGGGLVQAGGSLRQNCETSGTIFVLWYMGWYRQAPGKERELVATINDGANTYYADSVKGRFTINRDNANSTVYMKMNSLIPEDTAVYYCAVYAIIVWGLGYWGQGTQVTVSS | high polyreactivity |
| QVQLQECGGGLVQAGGSLRLSCAASGTFSNSVKWLYCHAPGKEREFVATIGVGGSTNYADSVKGRFTISRDNAKYTVYLQMNSLKPEDTAVYHCAAYGAASNFHYYRGQGTQVTVSS | low polyreactivity |
| QVQLQECGGGLVQAGGSLRLSCAASGTFSNSVKWLYCQAPGKEREFVATIGVGGSTNYADSVIGRFTISRDNAKNTVYLQMNSRKQEDTAVYHCAAYGAASNFHYYRGQGTQVTVSS | low polyreactivity |
| QVQLQEGGGGLVQAGVSLRLSCAASGYISYGDVMGWNRQAPGEERELVASIGLDATTNYADSVKGRFTISRDNAKISVYLQMNSLKPEATAVYYCAADVGSGVLCGYWGQGTQMTVSS | high polyreactivity |
| QVQLQEIGGSLVQAGGSLRLSGAASGNILVLPPGQVSPGAERELDATITGGSITYYADSVKGRFTISRDNAKNTVYLQMNSLKPEDTAVYYCAAVSLRKSYGYNYWGQGTLVTVSS | high polyreactivity |
| QVQLQERAGGLVQAGGSLRQRCSASGYISCDASMGWYRQAPGKERELAASITKGSSTKYADIVKGRFTFRDNAKNTVYLKMNSLKPEDTAVCYCAVTYPYWGDYTYWGQGTQVTVSS | low polyreactivity |
| QVQLQERAGGLVQAGGSLRQSCAASGYRSLAQTIGWYRQAPGKEREFVASIALGSSTYYTDSVKGSFTISRDNAKTTVYLQMNSLKPEATAVYYCNARDDVYLITPYFLVYVNLDYWGQGTQVTVSS | low polyreactivity |
| QVQLQERGGGLVQAGASLRQSCAASGTIFTARFMGWYRQAPGKERELVATITDGGNTNDADSVKGRFTSSRDNAKITVYLQMNSLKPEYAAVYYCAAGEVDNDTLLYWGQGSQVTVSS | low polyreactivity |

| Sequence | polyreactivity (PSR sort gate) |
| --- | --- |
| QVQLQERGGGLVQAGGSLRLSCAASGSIFQYTLMGWYLQAPGKEREFVAAITDGANTNYADSVKGRFSISRDNAKNTVNLQMNSLKPEETAVYYCATDYGYTDRVTSGFDYWGLGTQVTVSS | low polyreactivity |
| QVQLQESAGGLVQAGGSLRLRCSASGYISCDASMGWYRQAPGKERELAASITKGSSTNYADSVKGRFTIRDNAKNTVYLQMNSLKPEDTSVCYCAVTYPYWGDYTYWGQGTQVTVSS | low polyreactivity |
| QVQLQESAGGLVQAGGSLRQSCEASGYIIPYYSMGWYRQSPGKERGLVACIAAGTTTNYADSVNGRFTISRDNEKNTVYLQMNSLNPEDAAVYFCAALNAFNTGHWYWGQGTQVTVSS | low polyreactivity |
| QVQLQESCGGLVQAGGCLRLSCAASGTIFDPDYMGWYHQAPCKERELVASISLGRITYYADSVKGRFTINRDNAKNTVYLQMNSLKPEDTAVYYCAVRVETIYYYSYWGQGTQVTVRS | high polyreactivity |
| QVQLQESDGGLVQAGGSLRLTCAASGSISPQYYMGWYRQAPGQEREFVAISKGTTTYYADSVKGRLTISRVNAKNTVYLQMNSLKPEDTAVYCCAAGRWLQKVHAYWDQGTQVTVSS | low polyreactivity |
| QVQLQESGACLVLAGGSLRMSCASSGYIFDTCPMGGYRQAPGKEREFVASIDHGSNTYYADSVKGRFTISRDSAKNTVYLQLNSLKPEDTAVYYCAVRDDGSYTYGNWGQGTQVSVSS | high polyreactivity |
| QVQLQESGAGLDQAGGSLRLSCAPSGYISDIGTMGWYRQAPGKEREFVATIVVGSTTNYADSVKGRFTISRDNAKNTVYLQPESGRYRGVVLRGWLLAVGKFTYWGQGTQETVSS | low polyreactivity |
| QVQLQESGAGLEQAGGSLRMSCAASGYISDIVTMGWYRQAPGKEREFVATIVVGSTTNYADSVKGRFTISRDNANNSVYLQPESGRYRGVLLRGWLLAVGKFTYWGQGTQETVSS | low polyreactivity |
| QVQLQESGCGLVQAGGSLRLSCAASGDIIEADDMGWYRQAPGKERELVASITDGGSTNCADSMKGRSTICRDNAKITVYLQMNSLKLEDTAVYYCAAIAYPDVPTYFDYDSDYFYWGQGTLVTVSS | high polyreactivity |
| QVQLQESGCGLVQAGGSLRLSCAASGSISAVGAMGWYRQAPGKEREFAASVNWGTNTNYADSVKGRFTISRDNAKNTLYLLMNSLTPEDTAVYYCAVLPDWETRHDYWGHGTQVTVSS | low polyreactivity |
| QVQLQESGDGLVQAVGSLRLSCAASGYISGYYYMGWYRQAPGKERELVAGIDAFGSSTNYADCVKGRFTISRDNAKNTVYLQMNSLKPEDTAVYYCAARPDGYRLFSYWGQGTQVTVSS | low polyreactivity |
| QVQLQESGGCLVQAGGSQRLSCAASGYIFYFQYMGWYRQAQGKEREFVAAISDGANTNYADSVKGRFTISRDNAKNTEYLKMNSLKPEDTAVYYCAVYADENYYYIYWGQGTQVTVSS | low polyreactivity |
| QVQLQESGGGLAQAGGSLRLSCAASGTIFPADSMGWYRQAPGKERELVAGITTGANTYYADSVKGRFTISHDNAKNTVYLQMDSLIPEDIALYYCAAPGSSTYDLEYWGQGTQVTVSS | high polyreactivity |
| QVQLQESGGGLAQAGGSLRLTCAASGTIFPADSMGWYRQAPGKERELVAGITSGANTYYADSVKGRFTISHDNAKNTVYLQMDSLIPEDIAVYYCGAPGSSTYDLEYWGQGTQVTVSS | high polyreactivity |
| QVQLQESGGGLEQAGGSLRLSCAASGYISEIGTMGWYRQAPGKEREFVATIVVGSTTNYADSVKGRFTISRDNAKNTVYLQPESGRYRGVLLRGWLLAVGKFNYWGQGTQETVSS | low polyreactivity |
| QVQLQESGGGLEQAGVSLRLSCAASGYISDIGTMGWYRQAPGKEREFVATIVVGSTTNYADSVKGRFTISRDNAKNTVYLQPESGRYRGVLLRGWLLAVGIFTYWGQGTQETVSS | low polyreactivity |
| QVQLQESGGGLLQAGGSLRLSCAASGTISTDSYMGWYRQAPGKERKFVATIGYGGITYYADSVKGRSTISRDSAKNTVYLQMNSLKPEDTEVYYCAVNSYYPDHYWYWGRGTQVTVSS | high polyreactivity |
| QVQLQESGGGLVHAGGILRLSCAASGTISFINMKGWYGQAPGRERELVASINFGANTHYADSVKGRFTIRRDNAKNTVYLQMNSLKPEDTAVSYCAARKVRFGVDYWGQGTQVTVSS | high polyreactivity |
| QVQLQESGGGLVKAGGSLRLSCAASGNISPSDAMGWYRQAPGEERDLVASNAYSAITYYADGVKGRYTISRDNAKNTVYLQMNSLKPEDTEVYYCAVYQFTYPVFPAYWGQGTQVTVSS | low polyreactivity |
| QVQLQESGGGLVLAGGSLRLSCAASGSITAQAYMGWDRQAPGKEREHVAGINYGDNTNYADSVKGRFTISRDNEHRVSADEQPETGRYRGVLLRGFLEIFYYYIFWGQGTQVTVSS | high polyreactivity |
| QVQLQESGGGLVLAGGSLRLSCSASGNISVYGSMGWYRQAPGKVREFVATIDPGTNTNYADSVKDRFTISRDNAKNTVYLQMNSLKPEDTAVYYCAVEAGSDWPYRYWGQGTQVTVSS | low polyreactivity |
